Assay results published in PMC8244865, “Recruitment of phospholipase Cγ1 to the non-structural membrane protein pK15 of Kaposi Sarcoma-associated herpesvirus promotes its Src-dependent phosphorylation” (PLoS Pathogens, 2021).

Assays:
[1] = tested on: PLCγ1 cSH2 domain (in tSH2 aa 545–772); assay: crystal structure with truncated PLCγ1 tSH2, cSH2 site; type: binding; details: truncated tSH2 (aa 545–772), resolution 2.1 Å
Description: A shortened version of the PLCγ1 tSH2 domain (aa 545–772) lacking the linker peptide connecting the PLCγ1 cSH2 and SH3 domains (see Results section) was cloned into a pET28a vector carrying an N-terminal His Tag and a SUMO sequence. Expression was carried out in E. coli and the protein was purified to homogeneity as described above. His-Tag and SUMO were proteolytically removed using SUMO protease (SIGMA) following the manufacturer’s instructions, and the cleaved protein purified on a HisTrap column. Fractions containing cleaved protein were further purified by size exclusion chromatography (SEC) using a Superdex 75 26/600 column (GE Healthcare) equilibrated with 50mM Tris pH7.5, 150mM NaCl and 1mM TCEP buffer. The purified protein in SEC buffer was added to lyophilized phosphorylated 12mer pK15 peptide (DDLpYEEVLFPRN) in a 1:8 molar ratio (Protein: peptide) at a final concentration of 3mg/ml of peptide and 7.5mg/ml protein. Crystals were grown at 293 K using the sitting-drop vapor diffusion method in drops containing 1μl protein solution mixed with 1 μL reservoir solution containing 30% PEG 4000, 0.1M TrisHCl pH 8.5 and 0.2M sodium acetate. The crystals were flash frozen in the mother liquor containing 30% ethylene glycol and diffraction data were collected at P13 at DESY-Hamburg. Data were processed, scaled and reduced with XDS [75], Pointless and programs from the CCP4 suite. […]

[2] = tested on: PLCγ1 (transfected and endogenous, HEK-293T lysates); assay: GST-pulldown, full length PLCγ1; type: binding; details: in vitro phosphorylated by Src; transfected and endogenous PLCγ1, HEK 293 lysates; Western blot
Description: Fig 2 K15 phosphorylation results in a stronger binding to PLCγ1. (A) An expression plasmid for an S-tagged full length PLCγ1 or the empty vector (EV) were transfected in HEK-293T cells. After 30h cells were lysed and a GST-pulldown assay was performed with GST-fused pK15 CT (WT), the pK15 CT Y^481F mutant (Y^481F) or GST that had been bound to glutathione beads and previously phosphorylated by GST-6xHis Src (+) or left unphosphorylated (-). Bound proteins were analysed by WB using antibodies to the S tag on PLCγ1 and pTyr. (B) Untransfected HEK-293T cells were lysed and a GST-pulldown assay with pre-phosphorylated (+) or unphosphorylated (-) GST-fused pK15 CT WT/Y^481F or GST was performed and analysed by WB as in (A). (C) An expression plasmid for an S-tagged PLCγ1 SA or the empty vector were transfected in HEK-293T cells. […]
HEK293T cells were washed once with cold PBS 30 hours after transfection, lysed in IP buffer (50 mM Tris pH7.6, 60 mM NaCl, 6.25 mM EDTA, 1% (v/v) glycerol, 0.04% (v/v) NP-40) on ice for 30 minutes, sonicated shortly and cleared by centrifugation for 10 minutes at 20.000g, 4°C. […] Beads were then washed 5 times in 500 μl IP buffer (or for purified proteins IP buffer with 200 mM NaCl), suspended in 10 μl of 5x Laemmli sample buffer (60 mM Tris pH6.8, 24% (v/v) glycerol, 2% (v/v) SDS, 5% (v/v) β-mercaptoethanol, 0.01% Bromphenol Blue) and analysed by western blot.

Src kinase = assay: in vitro phosphorylation of pK15 CT by Src; type: biochemical; details: human GST-6xHis Src or chicken 2xStrep Src
Description: We expressed and purified the pK15 cytoplasmic tail (pK15 CT) fused to GST at its N-terminal end in bacteria and phosphorylated it in vitro using a commercially obtained human GST-6xHis Src, or a recombinant chicken 2xStrep Src kinase expressed in insect cells. In parallel, the GST-pK15 CT domain carrying the Y^481F mutation, or GST protein alone, were subjected to the same procedure. […] Following in vitro phosphorylation, pK15 CT^WT and pK15 CT^Y481F were used to pull down transiently expressed (Fig 2A) or endogenous (Fig 2B) PLCγ1 from HEK 293 lysates.
The GST-fused cytoplasmic tail of pK15 (GST-pK15 CT) was in vitro phosphorylated by recombinant human GST-6xHis Src kinase (ActiveMotif, 0.4 μg/ml per kinase reaction, 10 minutes at 30°C), or a recombinant chicken 2xStrep-Src kinase (10 μg/ml per kinase reaction, 30 minutes at 25°C). GST-pK15 CT was used at 4.8 μM or 6 μM and 50 μl or 100 μl reaction volumes for AlphaLISA and 3–6 μl glutathione beads with K15 and 25 μl reaction volume for GST pulldown experiments. […]
Supplementary file ppat.1009635.s001.tif: S1 Fig Both pK15 Y^431 and Y^481 are phosphorylated by recombinant Src kinase. […] Proteins were then analysed by WB using an antibody to pTyr. […]

Molecule	binding site occupancy in crystal structure [1]	interaction with PLCγ1 (GST-pulldown) [2]	pK15 bands detected after Src phosphorylation (pTyr Western blot) (Src kinase)
DDLpYEEVLFPRN [pK15 12mer, phosphorylated peptide representing the last 12 amino acids of pK15 CT (DDLp…)]	unambiguously bound to the PLCγ1 cSH2 domain		
pK15 CT^WT: pK15 cytoplasmic tail fused to GST at its N-terminal end, phosphorylated in vitro by Src (protein, tyrosine-phosphorylated in vitro by Src; sites not stated for this construct; left off: GST, N-terminal, kept) SQLLNEVELQEVNRDPPNVFGYASILVSGAEESREPSPQPDQSGMSILRVDGGSAFRIDTAQAATQPTDDLYEEVLFPRN		substantial increase in its interaction with PLCγ1	a dominant (bottom) and a minor (top) pK15 band
